According to patent US20180169233A1 (MOSAIC BIOMEDICALS S L, published 2018):

Target: human LIF (source not stated) (human, UniProt P15018 23-202)
Experiment: cell-based or functional assay

Sequence of human LIF (source not stated) (P15018 23-202 limits assumed): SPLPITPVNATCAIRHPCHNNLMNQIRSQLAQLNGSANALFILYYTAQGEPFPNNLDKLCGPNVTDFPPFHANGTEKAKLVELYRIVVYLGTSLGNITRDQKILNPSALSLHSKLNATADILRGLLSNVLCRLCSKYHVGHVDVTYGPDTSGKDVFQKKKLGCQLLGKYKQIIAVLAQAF

B1: h5D8 (humanized 5D8 comprising H2 and L2) (antibody, human IgG1, kappa, V domains shown)
VH: QVQLQESGGGLVKPGGSLRLSCAASGFTFSHAWMHWVRQAPGKGLEWVGQIKAKSDDYATYYAESVKGRFTISRDDSKNTLYLQMNSLKTEDTAVYYCTCWEWDLDFWGQGTMVTVSS
VL: DIVMTQTPLSSPVTLGQPASISCRSSQSLLDSDGHTYLNWLQQRPGQPPRLLIYSVSNLESGVPDRFSGSGAGTDFTLKISRVEAEDVGVYYCMQATHAPPYTFGQGTKLEIKR
IC50 for biological inhibition (pSTAT3, U-251 cells, serum starved, endogenous LIF): 490 picomolar
